Experimental data from US20080305097.

System: stromal cell-derived factor 1 (SDF-1)

Substance: cathepsin K (CTK)
- SDF-1 cleavage by CTK (SDS-PAGE and western blot, time course of minutes): The results obtained show fast and site specific SDF-1 cleavage by CTK
